Results: patent US10920254B2, “Methods and materials for producing 5 and 7-carbon monomers” (INVISTA North America S.á.r.l., priority 2015, dated 2021)

B1: SEQ ID NO: 3: Mycobacterium smegmatis carboxylate reductase, N-terminal HIS tagged (protein, listed as Mycobacterium smegmatis)
chain: MTSDVHDATDGVTETALDDEQSTRRIAELYATDPEFAAAAPLPAVVDAAHKPGLRLAEILQTLFTGYGDRPALGYRARELATDEGGRTVTRLLPRFDTLTYAQVWSRVQAVAAALRHNFAQPIYPGDAVATIGFASPDYLTLDLVCAYLGLVSVPLQHNAPVSRLAPILAEVEPRILTVSAEYLDLAVESVRDVNSVSQLVVFDHHPEVDDHRDALARAREQLAGKGIAVTTLDAIADEGAGLPAEPIYTADHDQRLAMILYTSGSTGAPKGAMYTEAMVARLWTMSFITGDPTPVINVNFMPLNHLGGRIPISTAVQNGGTSYFVPESDMSTLFEDLALVRPTELGLVPRVADMLYQHHLATVDRLVTQGADELTAEKQAGAELREQVLGGRVITGFVSTAPLAAEMRAFLDITLGAHIVDGYGLTETGAVTRDGVIVRPPVIDYKLIDVPELGYFSTDKPYPRGELLVRSQTLTPGYYKRPEVTASVFDRDGYYHTGDVMAETAPDHLVYVDRRNNVLKLAQGEFVAVANLEAVFSGAALVRQIFVYGNSERSFLLAVVVPTPEALEQYDPAALKAALADSLQRTARDAELQSYEVPADFIVETEPFSAANGLLSGVGKLLRPNLKDRYGQRLEQMYADIAATQANQLRELRRAAATQPVIDTLTQAAATILGTGSEVASDAHFTDLGGDSLSALTLSNLLSDFFGFEVPVGTIVNPATNLAQLAQHIEAQRTAGDRRPSFTTVHGADATEIRASELTLDKFIDAETLRAAPGLPKVTTEPRTVLLSGANGWLGRFLTLQWLERLAPVGGTLITIVRGRDDAAARARLTQAYDTDPELSRRFAELADRHLRVVAGDIGDPNLGLTPEIWHRLAAEVDLVVHPAALVNHVLPYRQLFGPNVVGTAEVIKLALTERIKPVTYLSTVSVAMGIPDFEEDGDIRTVSPVRPLDGGYANGYGNSKWAGEVLLREAHDLCGLPVATFRSDMILAHPRYRGQVNVPDMFTRLLLSLLITGVAPRSFYIGDGERPRAHYPGLTVDFVAEAVTTLGAQQREGYVSYDVMNPHDDGISLDVFVDWLIRAGHPIDRVDDYDDWVRRFETALTALPEKRRAQTVLPLLHAFRAPQAPLRGAPEPTEVFHAAVRTAKVGPGDIPHLDEALIDKYIRDLREFGLI
modifications: N-terminal His tag
notes: Mycobacterium smegmatis carboxylate reductase, N-terminal HIS tagged
B2: SEQ ID NO: 9: Pseudomonas syringae ω-transaminase, N-terminal HIS tagged (protein, listed as Pseudomonas syringae)
chain: MSANNPQTLEWQALSSEHHLAPFSDYKQLKEKGPRIITRAEGVYLWDSEGNKILDGMSGLWCVAIGYGREELADAASKQMRELPYYNLFFQTAHPPVLELAKAISDIAPEGMNHVFFTGSGSEGNDTMLRMVRHYWALKGQPNKKTIISRVNGYHGSTVAGASLGGMTYMHEQGDLPIPGVVHIPQPYWFGEGGDMTPDEFGIWAAEQLEKKILELGVENVGAFIAEPIQGAGGVIVPPDSYWPKIKEILSRYDILFAADEVICGFGRTSEWFGSDFYGLRPDMMTIAKGLTSGYVPMGGLIVRDEIVAVLNEGGDFNHGFTYSGHPVAAAVALENIRILREEKIVERVRSETAPYLQKRLRELSDHPLVGEVRGVGLLGAIELVKDKTTRERYTDKGAGMICRTFCFDNGLIMRAVGDTMIIAPPLVISFAQIDELVEKARTCLDLTLAVLQG
modifications: N-terminal His tag
notes: Pseudomonas syringae ω-transaminase, N-terminal HIS tagged
B3: SEQ ID NO: 12: Vibrio fluvialis ω-transaminase, N-terminal HIS tagged (protein, listed as Vibrio fluvialis)
chain: MNKPQSWEARAETYSLYGFTDMPSLHQRGTVVVTHGEGPYIVDVNGRRYLDANSGLWNMVAGFDHKGLIDAAKAQYERFPGYHAFFGRMSDQTVMLSEKLVEVSPFDSGRVFYTNSGSEANDTMVKMLWFLHAAEGKPQKRKILTRWNAYHGVTAVSASMTGKPYNSVFGLPLPGFVHLTCPHYWRYGEEGETEEQFVARLARELEETIQREGADTIAGFFAEPVMGAGGVIPPAKGYFQAILPILRKYDIPVISDEVICGFGRTGNTWGCVTYDFTPDAIISSKNLTAGFFPMGAVILGPELSKRLETAIEAIEEFPHGFTASGHPVGCAIALKAIDVVMNEGLAENVRRLAPRFEERLKHIAERPNIGEYRGIGFMWALEAVKDKASKTPFDGNLSVSERIANTCTDLGLICRPLGQSVVLCPPFILTEAQMDEMFDKLEKALDKVFAEVA
modifications: N-terminal His tag
notes: Vibrio fluvialis ω-transaminase, N-terminal HIS tagged
B4: SEQ ID NO: 7: Chromobacterium violaceum ω-transaminase, N-terminal HIS tagged (protein, listed as Chromobacterium violaceum)
chain: MQKQRTTSQWRELDAAHHLHPFTDTASLNQAGARVMTRGEGVYLWDSEGNKIIDGMAGLWCVNVGYGRKDFAEAARRQMEELPFYNTFFKTTHPAVVELSSLLAEVTPAGFDRVFYTNSGSESVDTMIRMVRRYWDVQGKPEKKTLIGRWNGYHGSTIGGASLGGMKYMHEQGDLPIPGMAHIEQPWWYKHGKDMTPDEFGVVAARWLEEKILEIGADKVAAFVGEPIQGAGGVIVPPATYWPEIERICRKYDVLLVADEVICGFGRTGEWFGHQHFGFQPDLFTAAKGLSSGYLPIGAVFVGKRVAEGLIAGGDFNHGFTYSGHPVCAAVAHANVAALRDEGIVQRVKDDIGPYMQKRWRETFSRFEHVDDVRGVGMVQAFTLVKNKAKRELFPDFGEIGTLCRDIFFRNNLIMRACGDHIVSAPPLVMTRAEVDEMLAVAERCLEEFEQTLKARGLA
modifications: N-terminal His tag
notes: Chromobacterium violaceum ω-transaminase, N-terminal HIS tagged

How the values were obtained:
Assay type in all cases: biochemical
[1] = ω-transaminase enzyme activity assay (7-aminoheptanol to 7-oxoheptanol), L-alanine formation by RP-HPLC; settings: for acceptance of 7-aminoheptanol as substrate (conversion of pyruvate to L-alanine), confirmed against the empty vector control: cell free extract, 10 mM 7-aminoheptanol, 10 mM pyruvate, pH 7.5, 25° C., 4 h, FIG. 17; for acceptance of 7-oxoheptanol as substrate forming 7-aminoheptanol: concluded from the reversibility of the ω-transaminase activity (Example 1)
Method: A nucleotide sequence encoding an N-terminal His-tag was added to the Chromobacterium violaceum, Pseudomonas syringae, and Rhodobacter sphaeroides nucleic acids encoding the ω-transaminases of SEQ ID NOs: 7, 9 and 10, respectively (see FIGS. 6E-6F), such that N-terminal HIS tagged ω-transaminases could be produced. The modified genes were cloned into a pET21a expression vector under the T7 promoter. Each expression vector was transformed into a BL21[DE3] E. coli host. Each resulting recombinant E. coli strain was cultivated at 37° C. in a 250 mL shake flask culture containing 50 mL LB media and antibiotic selection pressure, with shaking at 230 rpm. Each culture was induced overnight at 16° C. using 1 mM IPTG.
(§1) The pellet from each induced shake flask culture was harvested via centrifugation. Each pellet was resuspended and lysed via sonication. The cell debris was separated from the supernatant via centrifugation and the cell free extract was used immediately in enzyme activity assays.
(§2) Enzyme activity assays in the reverse direction (i.e., 7-aminoheptanol to 7-oxoheptanol) were performed in a buffer composed of a final concentration of 50 mM HEPES buffer (pH=7.5), 10 mM 7-aminoheptanol, 10 mM pyruvate, and 100 μM pyridoxyl 5′ phosphate. Each enzyme activity assay reaction was initiated by adding cell free extract of the ω-transaminase gene product or the empty vector control to the assay buffer containing the 7-aminoheptanol and then incubated at 25° C. for 4 h, with shaking at 250 rpm. The formation of L-alanine was quantified via RP-HPLC.

[2] = ω-transaminase enzyme activity assay, reverse direction (7-aminoheptanoate to pimelate semialdehyde), L-alanine formation by RP-HPLC; settings: cell free extract; 10 mM 7-aminoheptanoate, 10 mM pyruvate, pH 7.5, 25° C., 4 h; FIG. 13
Method: (§3) A nucleotide sequence encoding an N-terminal His-tag was added to the nucleic acid sequences from Chromobacterium violaceum, Pseudomonas syringae, Rhodobacter sphaeroides, and Vibrio fluvialis encoding the ω-transaminases of SEQ ID NOs: 7, 9, 10, and 12, respectively (see FIGS. 6E-6F) such that N-terminal HIS tagged ω-transaminases could be produced. Each of the resulting modified genes was cloned into a pET21a expression vector under control of the T7 promoter and each expression vector was transformed into a BL21[DE3] E. coli host. The resulting recombinant E. coli strains were cultivated at 37° C. in a 250 mL shake flask culture containing 50 mL LB media and antibiotic selection pressure, with shaking at 230 rpm. Each culture was induced overnight at 16° C. using 1 mM IPTG.
as §1
as §2, with “7-aminoheptanoate” for “7-aminoheptanol”, “pimelate semialdehyde)” for “7-oxoheptanol)”, “7-aminoheptanoate,” for “7-aminoheptanol,”, “and” for “and then”, “L-alanine from pyruvate” for “L-alanine”

[3] = ω-transaminase enzyme activity assay, forward direction (pimelate semialdehyde to 7-aminoheptanoate), pyruvate formation by RP-HPLC; settings: for acceptance of pimelate semialdehyde as substrate (conversion of L-alanine to pyruvate), confirmed against the empty vector control: cell free extract, 10 mM pimelate semialdehyde, 10 mM L-alanine, pH 7.5, 25° C., 4 h, FIG. 14; for reversibility of the ω-transaminase activity: pimelate semialdehyde accepted, 7-aminoheptanoate synthesized: conclusion from forward and reverse direction assays of Example 1
Method: as §3, §1
Enzyme activity in the forward direction (i.e., pimelate semialdehyde to 7-aminoheptanoate) was confirmed for the transaminases of SEQ ID NO: 9, SEQ ID NO: 10, and SEQ ID NO: 12. Enzyme activity assays were performed in a buffer composed of a final concentration of 50 mM HEPES buffer (pH=7.5), 10 mM pimelate semialdehyde, 10 mM L-alanine, and 100 μM pyridoxyl 5′ phosphate. Each enzyme activity assay reaction was initiated by adding a cell free extract of the ω-transaminase gene product or the empty vector control to the assay buffer containing the pimelate semialdehyde and incubated at 25° C. for 4 h, with shaking at 250 rpm. The formation of pyruvate was quantified via RP-HPLC.

[4] = carboxylate reductase enzyme activity assay (N7-acetyl-7-aminoheptanoate to N7-acetyl-7-aminoheptanal), NADPH consumption at 340 nm; settings: purified enzyme enhanced by gene product of sfp; 2 mM N7-acetyl-7-aminoheptanoate, 1 mM ATP, 1 mM NADPH, pH 7.5, room temperature, 20 min; FIG. 10
Method: The activity of each of the N-terminal His-tagged carboxylate reductases of SEQ ID NOs: 3, 5, and 6 (see Examples 2 and 3, and FIG. 6B, FIGS. 6D-6E) for converting N7-acetyl-7-aminoheptanoate to N7-acetyl-7-aminoheptanal was assayed in triplicate in a buffer composed of a final concentration of 50 mM HEPES buffer (pH=7.5), 2 mM N7-acetyl-7-aminoheptanoate, 10 mM MgCl2, 1 mM ATP, and 1 mM NADPH. The assays were initiated by adding purified carboxylate reductase and phosphopantetheine transferase or the empty vector control to the assay buffer containing the N7-acetyl-7-aminoheptanoate then incubated at room temperature for 20 min. The consumption of NADPH was monitored by absorbance at 340 nm.

Row | Molecule | acceptance of 7-aminoheptanol as substrate (conversion of pyruvate to L-alanine), confirmed against the empty vector control [1] | acceptance of 7-oxoheptanol as substrate forming 7-aminoheptanol [1] | acceptance of 7-aminoheptanoate as substrate (conversion of pyruvate to L-alanine), confirmed against the empty vector control [2] | acceptance of pimelate semialdehyde as substrate (conversion of L-alanine to pyruvate), confirmed against the empty vector control [3] | reversibility of the ω-transaminase activity: pimelate semialdehyde accepted, 7-aminoheptanoate synthesized [3] | acceptance of N7-acetyl-7-aminoheptanoate as substrate (NADPH consumption), confirmed against the empty vector control [4]
1 | SEQ ID NO: 10: Rhodobacter sphaeroides ω-transaminase, N-terminal HIS tagged | accepted 7-aminoheptanol as substrate | accept 7-oxoheptanol as substrate and form 7-aminoheptanol | accepted 7-aminoheptanote as substrate | accepted pimelate semialdehyde as substrate | accepted pimelate semialdehyde as substrate and synthesized 7-aminoheptanoate as a reaction product | –
2 | B1 | – | – | – | – | – | accepted N7-acetyl-7-aminoheptanoate as substrate
3 | B2 | accepted 7-aminoheptanol as substrate | accept 7-oxoheptanol as substrate and form 7-aminoheptanol | accepted 7-aminoheptanote as substrate | accepted pimelate semialdehyde as substrate | accepted pimelate semialdehyde as substrate and synthesized 7-aminoheptanoate as a reaction product | –
4 | B3 | – | – | accepted 7-aminoheptanote as substrate | accepted pimelate semialdehyde as substrate | accepted pimelate semialdehyde as substrate and synthesized 7-aminoheptanoate as a reaction product | –
5 | B4 | accepted 7-aminoheptanol as substrate | accept 7-oxoheptanol as substrate and form 7-aminoheptanol | accepted 7-aminoheptanote as substrate | – | accepted pimelate semialdehyde as substrate and synthesized 7-aminoheptanoate as a reaction product | –
